Drawing on patent US20230033370A1 (Bicycle, published 2023), this text covers Ki for one molecule.

*1 amine or outer side, *2 acyl side, *3 side chain or, on linkers, in order; H or OH if unused. Bridges are numbered along the chain shown (N, C = ends). Where no end group is shown, it is not given here. TCAN = N,N',N''-(nitrilotris(ethane-2,1-diyl))tris(2-chloroacetamide) scaffold, O=C(C[*:1])NCCN(CCNC(=O)C[*:2])CCNC(=O)C[*:3]

The assay deals with T1, Human IL-17A (human, UniProt Q16552 24-155).
T1 construct: Soluble IL-17A used at a fixed concentration (75 nM with tracer BCY13196) in the FP assay; also called CTLA-8
T1 sequence (looked up): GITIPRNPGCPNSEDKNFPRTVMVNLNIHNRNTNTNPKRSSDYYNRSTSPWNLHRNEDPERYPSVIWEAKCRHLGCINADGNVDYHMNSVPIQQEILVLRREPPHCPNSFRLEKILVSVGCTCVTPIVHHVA
Put plainly: fluorescence polarization competition, 75 nM human IL-17A, 1 nM tracer BCY13196 as competitor, mean of n=3. As to the method:
Affinity determination by fluorescence polarization (FP) competition. Bicycles were screened to determine affinity (Ki) in a fluorescence polarisation assay where in competition with a bicycle labelled with fluorescein (referred to as tracer) with a known affinity for IL-17A. Peptides were diluted to an appropriate concentration in assay buffer (PBS+0.01% Tween20, adjusted to pH7.4 using NaOH (1M)) with a maximum of 1% DMSO, then serially diluted 1 in 2 into assay buffer. Into black 384-well low volume plates, 5 μL of diluted peptide was added to the plate followed by 10 μL of IL-17A at a fixed concentration (75 nM IL-17A for tracer BCY13196, 50 nM IL-17A for tracer BCY13351), then 10 μL tracer added to a final concentration of 1 nM. Measurements were conducted on a BMG PHERAstar FS equipped with an “FP 485 520 520” optic module which excites at 485 nm and detects parallel and perpendicular emission at 520 nm. The PHERAstar FS was set at 25° C. with 200 flashes per well and a positioning delay of 0.1 second, with each well measured at 5 to 10 minute intervals for 60 minutes. The gain used for measurements was determined at the point of experiment on a tracer alone well. Data analysis was performed in Dotmatics where mP values were fit to the Cheng Prusoff equation in order to generate a Ki value. The tracers used was BCY13196: [Fl]-[…] […]

B1: BCY13061 (peptide)
peptide: ACPQDLELCTFLFGDCA
modifications: linker 2-9-16 via TCAN
notes: Synthetic bicyclic peptide cyclised on the TCAN scaffold
Regarding B1, the Ki worked out at 488 nM.
